Source: US20180155451A1 (published 2018)

T1: FcγRIIa R (extracellular domain, C-terminal His tag) (human, UniProt P12318 34-217)
T1 construct: extracellular domain; also called FcgRIIa R type; 2aR; not shown: His tag attached to the C terminus
T1 sequence (looked up): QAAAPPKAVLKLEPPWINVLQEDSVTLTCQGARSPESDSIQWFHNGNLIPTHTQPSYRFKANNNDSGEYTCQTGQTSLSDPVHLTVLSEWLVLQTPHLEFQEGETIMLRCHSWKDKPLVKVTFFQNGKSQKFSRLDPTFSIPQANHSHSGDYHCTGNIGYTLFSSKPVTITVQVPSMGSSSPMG

T2: FcγRIIb (extracellular domain, C-terminal His tag) (human, UniProt P31994 43-217)
T2 construct: extracellular domain; also called FcgRIIb; 2b; not shown: His tag attached to the C terminus
T2 sequence (looked up): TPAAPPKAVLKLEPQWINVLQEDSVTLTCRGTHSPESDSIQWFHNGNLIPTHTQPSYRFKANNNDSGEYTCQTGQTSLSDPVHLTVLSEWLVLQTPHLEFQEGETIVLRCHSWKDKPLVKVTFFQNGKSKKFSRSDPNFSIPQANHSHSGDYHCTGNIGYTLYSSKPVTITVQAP

B1: GpH7-A5/GpH7-B3 variant S337_02A/GpL16-k0 (antibody, human IgG1, kappa)
heavy 1: not shown
heavy 2: not shown
light: DIVMTQSPLSLPVTPGEPASISCQASESLVHSNRNTYLHWYLQKPGQSPQLLIYKVSNRFSGVPDRFSGSGSGTDFTLKISRVEAEDVGVYYCSQNTHVPPTFGQGTKVEIERTVAAPSVFIFPPSDEQLKSGTASVVCLLNNFYPREAKVQWKVDNALQSGNSQESVTEQDSKDSTYSLSSTLTLSKADYEKHKVYACEVTHQGLSSPVTKSFNRGEC
notes: Heterodimerized anti-glypican-3 IgG1; alteration in only one H chain (GpH7-B3 side); also called He Ab
B2: GpH7-A5/GpH7-B3 variant S337_19Q/GpL16-k0 (antibody, human IgG1, kappa)
heavy 1: not shown
heavy 2: not shown
light: B1 light
notes: as for B1
B3: GpH7-A5/GpH7-B3 variant E333_09D/GpL16-k0 (antibody, human IgG1, kappa)
heavy 1: not shown
heavy 2: not shown
light: B1 light
notes: as for B1
B4: GpH7-A5/GpH7-B3 variant T335_06M/GpL16-k0 (antibody, human IgG1, kappa)
heavy 1: not shown
heavy 2: not shown
light: B1 light
notes: as for B1
B5: GpH7-A5/GpH7-B3 variant E333_15Y/GpL16-k0 (antibody, human IgG1, kappa)
heavy 1: not shown
heavy 2: not shown
light: B1 light
notes: as for B1
B6: GpH7-A5/GpH7-B3 variant E333_08L/GpL16-k0 (antibody, human IgG1, kappa)
heavy 1: not shown
heavy 2: not shown
light: B1 light
notes: as for B1
B7: GpH7-A5/GpH7-B3 variant S337_12R/GpL16-k0 (antibody, human IgG1, kappa)
heavy 1: not shown
heavy 2: not shown
light: B1 light
notes: as for B1
B8: GpH7-A5/GpH7-B3 variant S337_04F/GpL16-k0 (antibody, human IgG1, kappa)
heavy 1: not shown
heavy 2: not shown
light: B1 light
notes: as for B1
B9: GpH7-A5/GpH7-B3 variant T335_01G/GpL16-k0 (antibody, human IgG1, kappa)
heavy 1: not shown
heavy 2: not shown
light: B1 light
notes: as for B1
B10: GpH7-A5/GpH7-B3 variant T335_02A/GpL16-k0 (antibody, human IgG1, kappa)
heavy 1: not shown
heavy 2: not shown
light: B1 light
notes: as for B1
B11: GpH7-A5/GpH7-B3 variant S337_11K/GpL16-k0 (antibody, human IgG1, kappa)
heavy 1: not shown
heavy 2: not shown
light: B1 light
notes: as for B1
B12: GpH7-A5/GpH7-B3 variant T335_12R/GpL16-k0 (antibody, human IgG1, kappa)
heavy 1: not shown
heavy 2: not shown
light: B1 light
notes: as for B1
B13: GpH7-A5/GpH7-B3 variant S337_03V/GpL16-k0 (antibody, human IgG1, kappa)
heavy 1: not shown
heavy 2: not shown
light: B1 light
notes: as for B1
B14: GpH7-A5/GpH7-B3 variant T335_05P/GpL16-k0 (antibody, human IgG1, kappa)
heavy 1: not shown
heavy 2: not shown
light: B1 light
notes: as for B1
B15: GpH7-A5/GpH7-B3 variant I336_18N/GpL16-k0 (antibody, human IgG1, kappa)
heavy 1: not shown
heavy 2: not shown
light: B1 light
notes: as for B1
B16: GpH7-A5/GpH7-B3 variant S337_06M/GpL16-k0 (antibody, human IgG1, kappa)
heavy 1: not shown
heavy 2: not shown
light: B1 light
notes: as for B1
B17: GpH7-A5/GpH7-B3 variant E333_07I/GpL16-k0 (antibody, human IgG1, kappa)
heavy 1: not shown
heavy 2: not shown
light: B1 light
notes: as for B1

These binders were tested against T1, FcγRIIa R (extracellular domain, …) (assay: SPR (Biacore), antibody captured on antigen-peptide chip, FcγR as analyte; relative binding amount).
Method: (§1) The heterodimerized antibodies He Abs in which one of the H chains was introduced with an alteration were assayed for their binding activities to each activating FcγR and inhibitory FcγR according to the method described in Example 4. […] The activating FcγRs in FIGS. 26, 27, 28, and 29 are FcγRIa, FcγRIIa (R), FcγRIIa (H), and FcγRIIIa, respectively.
(§2) Analysis of interaction between objective antibody and the FcγR was carried out using Biacore T100 (GE Healthcare). HBS-EP+ (GE Healthcare) was used as the running buffer, and the measurement temperature was set to 25° C. Chips produced by immobilizing the antigen peptide by the amine coupling method to a Series S Sencor Chip CM5 (GE Healthcare), or alternatively, chips produced by allowing preliminarily biotinylated antigen peptides to interact with and immobilize onto a Series S Sensor Chip SA (certified) (GE Healthcare) were used. Antibodies of interest were captured onto an antigen peptide-immobilized chip, and allowed to interact to each FcγR diluted with running buffer. To regenerate and repeatedly use the chip, the antibodies captured on the chip were washed off by reacting 10 mM glycine-HCl, pH 1.5.

Q: B1 was tested. Which He/Con_2aR did it give?
A: Its He/Con_2aR is 105 % of control (GpH7-A5/GpH7-B3/GpL16-k0 = 100).

Q: For B2, which He/Con_2aR is on record?
A: The He/Con_2aR was 106 % of control (GpH7-A5/GpH7-B3/GpL16-k0 = 100).

Q: With B3 as the binder, how does the He/Con_2aR read?
A: Its He/Con_2aR is 103 % of control (GpH7-A5/GpH7-B3/GpL16-k0 = 100).

Q: B4 was tested. Which He/Con_2aR did it give?
A: Its He/Con_2aR is 105 % of control (GpH7-A5/GpH7-B3/GpL16-k0 = 100).

Q: How did the He/Con_2aR turn out when B5 was run?
A: The He/Con_2aR was 101 % of control (GpH7-A5/GpH7-B3/GpL16-k0 = 100).

Q: For B6, which He/Con_2aR is on record?
A: The He/Con_2aR was 103 % of control (GpH7-A5/GpH7-B3/GpL16-k0 = 100).

Q: With B7 as the binder, how does the He/Con_2aR read?
A: The He/Con_2aR was 107 % of control (GpH7-A5/GpH7-B3/GpL16-k0 = 100).

Q: B8 was tested. Which He/Con_2aR did it give?
A: Its He/Con_2aR is 105 % of control (GpH7-A5/GpH7-B3/GpL16-k0 = 100).

Q: How did the He/Con_2aR turn out when B9 was run?
A: The He/Con_2aR was 104 % of control (GpH7-A5/GpH7-B3/GpL16-k0 = 100).

Q: For B10, which He/Con_2aR is on record?
A: The He/Con_2aR was 102 % of control (GpH7-A5/GpH7-B3/GpL16-k0 = 100).

Q: For B11, which He/Con_2aR is on record?
A: Its He/Con_2aR is 103 % of control (GpH7-A5/GpH7-B3/GpL16-k0 = 100).

Q: How did the He/Con_2aR turn out when B12 was run?
A: Its He/Con_2aR is 100 % of control (GpH7-A5/GpH7-B3/GpL16-k0 = 100).

Q: How did the He/Con_2aR turn out when B13 was run?
A: Its He/Con_2aR is 106 % of control (GpH7-A5/GpH7-B3/GpL16-k0 = 100).

Q: B14 was tested. Which He/Con_2aR did it give?
A: The He/Con_2aR was 104 % of control (GpH7-A5/GpH7-B3/GpL16-k0 = 100).

Q: With B15 as the binder, how does the He/Con_2aR read?
A: Its He/Con_2aR is 104 % of control (GpH7-A5/GpH7-B3/GpL16-k0 = 100).

Q: Which He/Con_2aR does the source give for B16 here?
A: The He/Con_2aR was 105 % of control (GpH7-A5/GpH7-B3/GpL16-k0 = 100).

Q: B17 was tested. Which He/Con_2aR did it give?
A: The He/Con_2aR was 104 % of control (GpH7-A5/GpH7-B3/GpL16-k0 = 100).

The binders below were run against T2, FcγRIIb (extracellular domain, …) in the same assay as above.
Method: as §1, §2

Q: Which He/Con_2b does the source give for B1 here?
A: The He/Con_2b was 97.2 % of control (GpH7-A5/GpH7-B3/GpL16-k0 = 100).

Q: Which He/Con_2b does the source give for B2 here?
A: Its He/Con_2b is 99.7 % of control (GpH7-A5/GpH7-B3/GpL16-k0 = 100).

Q: Which He/Con_2b does the source give for B3 here?
A: The He/Con_2b was 94.3 % of control (GpH7-A5/GpH7-B3/GpL16-k0 = 100).

Q: How did the He/Con_2b turn out when B4 was run?
A: The He/Con_2b was 99.4 % of control (GpH7-A5/GpH7-B3/GpL16-k0 = 100).

Q: Which He/Con_2b does the source give for B5 here?
A: Its He/Con_2b is 94.4 % of control (GpH7-A5/GpH7-B3/GpL16-k0 = 100).

Q: With B6 as the binder, how does the He/Con_2b read?
A: The He/Con_2b was 95 % of control (GpH7-A5/GpH7-B3/GpL16-k0 = 100).

Q: How did the He/Con_2b turn out when B7 was run?
A: The He/Con_2b was 99.5 % of control (GpH7-A5/GpH7-B3/GpL16-k0 = 100).

Q: B8 was tested. Which He/Con_2b did it give?
A: The He/Con_2b was 97.8 % of control (GpH7-A5/GpH7-B3/GpL16-k0 = 100).

Q: Which He/Con_2b does the source give for B9 here?
A: The He/Con_2b was 96.7 % of control (GpH7-A5/GpH7-B3/GpL16-k0 = 100).

Q: How did the He/Con_2b turn out when B10 was run?
A: The He/Con_2b was 94 % of control (GpH7-A5/GpH7-B3/GpL16-k0 = 100).

Q: Which He/Con_2b does the source give for B11 here?
A: The He/Con_2b was 94.3 % of control (GpH7-A5/GpH7-B3/GpL16-k0 = 100).

Q: For B12, which He/Con_2b is on record?
A: The He/Con_2b was 91.9 % of control (GpH7-A5/GpH7-B3/GpL16-k0 = 100).

Q: How did the He/Con_2b turn out when B13 was run?
A: The He/Con_2b was 98.9 % of control (GpH7-A5/GpH7-B3/GpL16-k0 = 100).

Q: How did the He/Con_2b turn out when B14 was run?
A: The He/Con_2b was 99.9 % of control (GpH7-A5/GpH7-B3/GpL16-k0 = 100).

Q: Which He/Con_2b does the source give for B15 here?
A: The He/Con_2b was 97.6 % of control (GpH7-A5/GpH7-B3/GpL16-k0 = 100).

Q: With B16 as the binder, how does the He/Con_2b read?
A: The He/Con_2b was 96.7 % of control (GpH7-A5/GpH7-B3/GpL16-k0 = 100).

Q: B17 was tested. Which He/Con_2b did it give?
A: The He/Con_2b was 96.2 % of control (GpH7-A5/GpH7-B3/GpL16-k0 = 100).
